Data set [1] deals with recombinant goat calreticulin (Capra hircus (goat)). In words: SEC; SEC-HPLC of the purified recombinant protein; retention time compared with that of standards (Figure S1). For orientation: Size exclusion chromatography separates by hydrodynamic size, large species first.
Data set [2] concerns the molecule itself. The description is as above.

Experimental findings from PMC12292289, “Identification of a Novel Antibacterial Function of Mammalian Calreticulin” (Biomolecules, 2025) are described below.

Consider “recombinant goat calreticulin (natural protein)”, for which, in data set [1], the stoichiometry N (commonly the number of molecules, sites or subunits per partner or assembly) was 2.

B1: recombinant human calreticulin (natural protein, UniProt P27797 18-417, looked up)
chain: EPAVYFKEQFLDGDGWTSRWIESKHKSDFGKFVLSSGKFYGDEEKDKGLQTSQDARFYALSASFEPFSNKGQTLVVQFTVKHEQNIDCGGGYVKLFPNSLDQTDMHGDSEYNIMFGPDICGPGTKKVHVIFNYKGKNVLINKDIRCKDDEFTHLYTLIVRPDNTYEVKIDNSQVESGSLEDDWDFLPPKKIKDPDASKPEDWDERAKIDDPTDSKPEDWDKPEHIPDPDAKKPEDWDEEMDGEWEPPVIQNPEYKGEWKPRQIDNPDYKGTWIHPEIDNPEYSPDPSIYAYDNFGVLGLDLWQVKSGTIFDNFLITNDEAYAEEFGNETWGVTKAAEKQMKDKQDEEQRLKEEEEDKKRKEEEEAEDKEDDEDKDEDEEDEEDKEEDEEEDVPGQAKDEL
notes: calreticulin, human; bought recombinant protein (Sino Biological, P27797); P27797 is printed where the reagent list gives catalogue numbers; also called recombinant human calreticulin expressed in HEK293 cells; source: bought: Sino Biological; expressed in HEK293 cells
Consider B1, for which the “stoichiometry N” value in data set [2] is 2.
